From patent US20040053388A1, “Detection of protein conformation using a split ubiquitin reporter system” (priority 2003, published 2004)
Positions count from the first letter of the chain named.

Columns and labels:
[1] = biological target: HA-tagged Ste4p (Saccharomyces cerevisiae) (UniProt P18851); experiment: cell-based or functional assay
yeast cells = experiment: Growth assay of Nub-p53core-Cub—RUra3p yeast cells on media containing 5-FOA; format: cell-based; conditions: Nia fusion protein
Text: The wild-type core domain and a destabilizing mutation V143A were further tested using a simple growth assay employing the R-ura3 reporter (see above) and selecting clones that can grow on 5-FOA. In this case the Nub (I13A) mutant Nia was used. If the Nub—X—Cub—R-ura3 fusion is […], the R-ura3 reporter will be cleaved off of the C-terminal end of Cub and subsequently be degraded by N-end rule components (see above), allowing the host yeast cell to grow on the 5-FOA selective media.
Consistent with previous results, the V143A core mutant is a destabilizing mutant when compared to the wild-type p53. […] The Nia fusion protein allows to distinguish between the cells expressing the wild type p53core (growth) and the cells expressing the V143A mutant of the core (non-growth).

Fpr1-Cub-Dha = Fpr1-Cub-Dha (Saccharomyces cerevisiae, UniProt P20081 1-114; P0CG63 35-76; P00375 1-187); experiment: split-ubiquitin in trans: coexpression in yeast, anti-ha immunoblot of cleaved Dha
Sequence of Fpr1-Cub-Dha (P20081 other isoform, or with tags, fused parts or gaps): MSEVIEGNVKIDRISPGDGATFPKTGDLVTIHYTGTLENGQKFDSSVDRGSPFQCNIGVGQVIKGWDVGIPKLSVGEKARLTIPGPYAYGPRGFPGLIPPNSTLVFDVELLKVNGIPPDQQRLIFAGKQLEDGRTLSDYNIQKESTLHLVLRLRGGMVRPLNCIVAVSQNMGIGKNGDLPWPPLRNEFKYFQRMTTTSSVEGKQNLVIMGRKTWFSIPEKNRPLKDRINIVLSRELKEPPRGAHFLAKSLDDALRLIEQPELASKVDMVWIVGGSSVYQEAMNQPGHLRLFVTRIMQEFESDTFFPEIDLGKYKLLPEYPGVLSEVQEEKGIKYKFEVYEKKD
Text: (§1) A significant extent of the observed cleavage could arise from the intermolecular reassociation of two Ub-halves that are linked to two different polypeptides. To estimate the contribution of the intermolecular Ub-reassociation, Guk1-Cub-Dha was coexpressed with several versions of Nub-Guk1-ha as was Fpr1-Cub-Dha with several versions of Nub-Fpr1-ha (FIG. 4a). Good intermolecular Nub—Cub reassociation is only seen in cells expressing the Nᵢᵢ-fusions, whereas none or only background cleavage is seen in those cells co-expressing the corresponding Nig-fusions. Nub-mutants with a lower affinity for Cub than Nig were therefore not tested. It thus can be concluded that the cleaved Dha observed for Nig—Cub fusion proteins and for those fusion proteins containing a Nub with a lower affinity for Cub than Nig must result exclusively from the intramolecular reassociation of the coupled Ub-peptides. The structure of Guk1p offers a reasonable explanation for this observation, that can not apply for the Fpr1p fusion proteins. Here the reassociation must either occur before Fpr1p is folded or after the unfolding of the already matured protein. […] We conclude that the fraction of cleaved Dha which is detected in the immunoblot analysis of cells expressing Nvg-Fpr1-Cub-Dha is largely derived from fusion proteins which stayed in the cytosol long enough to give the Fpr1-moiety sufficient time to fold.

S. cerevisiae cells = experiment: Intrapolypeptide split-ubiquitin cleavage of Nub—X—Cub-Dha fusions, anti-HA immunoblot with chemiluminescence quantification; format: cell-based, Saccharomyces cerevisiae; conditions: yeast cells; for cleavage (percentage of cleaved Dha compared to the sum of cleaved and uncleaved fusion protein): 30° C., one hour induction with 100 μM CuSO4, anti-HA immunoblot
Text: The isoleucine residues at position three and thirteen of Nub (Nii) were replaced by valine (Nxv; Nvx) alanine (Nxa; Nax) and glycine (Nxg; Ngx) (Johnsson et al., Proc. Natl. Acad. Sci. USA 91: 10340-44, 1994; Kellis et al., Biochemistry 28: 4914-22, 1989). The residues at position 3 and 13 are indicated by the suffix in Nub with the corresponding amino acids in the single letter code. The sixteen different combinations were first tested in the otherwise native Ub which was attached in front of the dihydrofolate reductase carrying the HA epitope at its C-terminus (Ub-Dha). The analysis of the cleaved and uncleaved protein was performed by immunodetection of the proteins with the anti-HA antibody after cell extraction and SDS-PAGE separation.
S. cerevisiae cells expressing the different Nub—X—Cub-fusions were grown at 30° C. in […] of SD medium to an OD600 of 0.8 and supplemented with 100 μM CuSO4 one hour prior to cell extraction. Cell extraction for immunoblotting was performed essentially as previously described (Johnsson et al., Embo J. 13: 2686-98, 1994). Proteins were fractionated by SDS-12.5% PAGE and electroblotted onto nitrocellulose membranes (Schleicher and Schuell, Dassel, Germany), using a semi-dry transfer system (Hoefer, Pharmacia Biotech INC., San Francisco, Calif.). Blots were incubated with a monoclonal anti-ha antibody (Babco, Richmond, Calif.). Bound antibody was visualized with horseradish peroxidase-coupled rabbit anti-mouse or goat anti-rabbit antibody (BioRad, Hercules, Calif.), using the chemiluminescence detection system (Pierce, Rockford, Ill.). The chemiluminescence was quantified with the aid of the lumi-imager system (Boehringer, Mannheim, Germany).

Guk1-Cub-Dha = Guk1-Cub-Dha (Saccharomyces cerevisiae, UniProt P15454 1-187; P0CG63 35-76; P00375 1-187); experiment: split-ubiquitin in trans: coexpression in yeast, anti-ha immunoblot of cleaved Dha
Sequence of Guk1-Cub-Dha (P15454 other isoform, or with tags, fused parts or gaps): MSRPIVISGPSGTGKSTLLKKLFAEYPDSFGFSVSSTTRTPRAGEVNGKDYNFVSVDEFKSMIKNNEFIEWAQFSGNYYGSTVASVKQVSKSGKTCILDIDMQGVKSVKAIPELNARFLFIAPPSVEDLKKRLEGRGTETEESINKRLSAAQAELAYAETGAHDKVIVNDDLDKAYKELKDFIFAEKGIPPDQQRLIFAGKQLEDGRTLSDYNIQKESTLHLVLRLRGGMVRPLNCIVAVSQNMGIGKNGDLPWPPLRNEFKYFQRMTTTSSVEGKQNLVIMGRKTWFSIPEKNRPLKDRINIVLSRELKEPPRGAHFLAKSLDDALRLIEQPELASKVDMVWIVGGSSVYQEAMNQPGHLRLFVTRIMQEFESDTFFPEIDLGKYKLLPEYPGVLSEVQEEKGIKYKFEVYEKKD
Text: as §1

Sequence of HA-tagged Ste4p (Saccharomyces cerevisiae) (P18851 other isoform, or with tags, fused parts or gaps limits assumed): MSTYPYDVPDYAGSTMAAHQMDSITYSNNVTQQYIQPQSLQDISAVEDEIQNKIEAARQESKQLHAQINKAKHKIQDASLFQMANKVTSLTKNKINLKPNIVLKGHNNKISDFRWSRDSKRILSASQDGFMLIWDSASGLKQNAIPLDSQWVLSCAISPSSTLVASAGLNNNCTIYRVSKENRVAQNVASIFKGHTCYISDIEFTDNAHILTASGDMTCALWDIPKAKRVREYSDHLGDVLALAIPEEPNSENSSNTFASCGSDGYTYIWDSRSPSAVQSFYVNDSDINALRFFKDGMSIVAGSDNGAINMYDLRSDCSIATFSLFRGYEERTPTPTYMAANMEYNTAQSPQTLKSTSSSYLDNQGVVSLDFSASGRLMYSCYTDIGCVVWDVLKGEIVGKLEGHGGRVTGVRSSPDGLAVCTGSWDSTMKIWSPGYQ

“Nvg-Ste1891-Cub-Dha (from UniProt P0CG63 1-37; P18852 20-105; P0CG63 35-76; P00375 1-187)” gave a fraction of uncleaved fusion protein (ratio of uncleaved to cleaved) with HA-Ste4p against without, inducing conditions (+Cu2+) [1] of 2 fold and a fraction of uncleaved fusion protein (ratio of uncleaved to cleaved) with HA-Ste4p against without, non-inducing conditions [1] of 3.6 fold.

With “wild type p53core: p53 core domain (amino acids 102-292) in Nub-p53core-Cub—RUra3p fusion” the “growth on media containing 5-FOA” value (yeast cells) was “growth”.

“Nvg-Ste1874-Cub-Dha (from UniProt P0CG63 1-37; P18852 37-105; P0CG63 35-76; P00375 1-187)” gave a ratio of uncleaved to cleaved fusion protein with HA-Ste4p against without, expression not induced by copper [1] of 1.6 fold.

B1: Nig-Fpr1-ha (other, UniProt P0CG63 1-37, looked up, not shown: small tags and cut ends)
chain: MQIFVKTLTGKTGTLEVESSDTIDNVKSKIQDKEGIPMSEVIEGNVKIDRISPGDGATFPKTGDLVTIHYTGTLENGQKFDSSVDRGSPFQCNIGVGQVIKGWDVGIPKLSVGEKARLTIPGPYAYGPRGFPGLIPPNSTLVFDVELLKVN
notes: also called Nub-Fpr1-ha; Nig-fusion
B1: no binding (Fpr1-Cub-Dha).

B2: Guk1V5R: Fusion construct of Guk1p with valine 5 replaced by arginine (protein, UniProt P15454 2-187, looked up, variant V5R)
Guanylate kinase: SRPIRISGPSGTGKSTLLKKLFAEYPDSFGFSVSSTTRTPRAGEVNGKDYNFVSVDEFKSMIKNNEFIEWAQFSGNYYGSTVASVKQVSKSGKTCILDIDMQGVKSVKAIPELNARFLFIAPPSVEDLKKRLEGRGTETEESINKRLSAAQAELAYAETGAHDKVIVNDDLDKAYKELKDFIFAEK
modifications: split-ubiquitin fusion construct
notes: Fusion construct of Guk1p with valine 5 replaced by arginine
For B2, the “cleavage (percentage of cleaved Dha compared to the sum of cleaved and uncleaved fusion protein)” value (S. cerevisiae cells) was 61%.

B3: Nvg-Guk1G8R—Cub-Dha: Nvg—Cub-Dha fusion of Guk1p with glycine 8 replaced by arginine (protein, UniProt P15454 2-187, looked up, variant G8R)
Guanylate kinase: B2 Guanylate kinase with R5V, G8R
modifications: fused to Nvg, Cub, Dha
notes: Nvg—Cub-Dha fusion of Guk1p with glycine 8 replaced by arginine
B3 was tested, and the “cleavage of fusion protein (in words)” value (S. cerevisiae cells; anti-HA immunoblot) was “cleaved as completely as the corresponding wild type construct”.

B4: Nig-Guk1-ha (other, UniProt P0CG63 1-37, looked up, not shown: small tags and cut ends)
chain: MQIFVKTLTGKTGTLEVESSDTIDNVKSKIQDKEGIPMSRPIVISGPSGTGKSTLLKKLFAEYPDSFGFSVSSTTRTPRAGEVNGKDYNFVSVDEFKSMIKNNEFIEWAQFSGNYYGSTVASVKQVSKSGKTCILDIDMQGVKSVKAIPELNARFLFIAPPSVEDLKKRLEGRGTETEESINKRLSAAQAELAYAETGAHDKVIVNDDLDKAYKELKDFIFAEK
notes: also called Nub-Guk1-ha; Nig-fusion
B4: no binding (Guk1-Cub-Dha).

B5: Fpr1V107A (protein, UniProt P20081 2-114, looked up, variant V107A)
FK506-binding protein 1: SEVIEGNVKIDRISPGDGATFPKTGDLVTIHYTGTLENGQKFDSSVDRGSPFQCNIGVGQVIKGWDVGIPKLSVGEKARLTIPGPYAYGPRGFPGLIPPNSTLVFDAELLKVN
In the case of B5, the “cleavage (percentage of cleaved Dha compared to the sum of cleaved and uncleaved fusion protein)” value (S. cerevisiae cells) is reported as 55%.

B6: Fpr1V107G (protein, UniProt P20081 2-114, looked up, variant V107G)
FK506-binding protein 1: B5 FK506-binding protein 1 with A107G
In the case of B6, the “cleavage (percentage of cleaved Dha compared to the sum of cleaved and uncleaved fusion protein)” value (S. cerevisiae cells) is reported as 40%.
